From patent publication US6780611B1, “Polynucleotide encoding neuromedin U receptor” (Pfizer Inc., priority 1999, dated 2004)
No end group written: not given here.

Target: T1, PFI-002 receptor (Homo sapiens, UniProt Q9GZQ4, S2A)
T1 construct: expressed in transfected cells; host or cells: HEK 293 (human embryonic kidney), transient transfection
Assay: Functional screen of peptides by FLIPR (Fluo-3 fluorescence) in HEK 293 cells transiently transfected with PFI-002
Assay type: cell-based
Conditions: HEK 293 cells transiently transfected with PFI-002, Fluo-3 loaded; neuromedins 10 μM final, in triplicate; other peptides 5 μM final
Method: Transient Expression in Native HEK 293 Cells
Transfection: 7.5 μg of PFI-002 DNA was transiently transfected into native human embryonic kidney 293 (HEK 293) cells (75 cm^2 flask, 80% confluent) using the Lipofectamine Plus protocol (Life Technologies, Inc.) and following the manufacturer's instructions. 24 hrs after transfection, the cells were detached with trypsin and seeded into black walled 96 well plates at a density of 5×10^4 cells/well. The next day the cells were loaded with Fluo-3 in the presence of 3 mM probenicid (Molecular Devices; inhibits activity of the anion transport protein, thus improving dye loading) for 1.5 hours (loading dye/96 well plate: 50 μg Fluo-3 in 20 μl DMSO+20 μl 20% pluronic acid in DMSO+11 ml growth media+3 mM probenicid—added 100 μl loading dye/well). After washing (wash buffer PBS/3 mM probenicid/pH 7.4), the cells were exposed to 60 peptides (final concentration 5 μM each) arrayed in a 96 well plate. In addition, neuromedins B, C, N, U8 and U25 (final concentration 10 μM each) were screened in triplicate. Fluorescence was measured by a Fluorometric Imaging Plate Reader (FLIPR, Molecular Devices) according to the manufacturer's protocol.

T1 sequence (Q9GZQ4 whole entry S2A): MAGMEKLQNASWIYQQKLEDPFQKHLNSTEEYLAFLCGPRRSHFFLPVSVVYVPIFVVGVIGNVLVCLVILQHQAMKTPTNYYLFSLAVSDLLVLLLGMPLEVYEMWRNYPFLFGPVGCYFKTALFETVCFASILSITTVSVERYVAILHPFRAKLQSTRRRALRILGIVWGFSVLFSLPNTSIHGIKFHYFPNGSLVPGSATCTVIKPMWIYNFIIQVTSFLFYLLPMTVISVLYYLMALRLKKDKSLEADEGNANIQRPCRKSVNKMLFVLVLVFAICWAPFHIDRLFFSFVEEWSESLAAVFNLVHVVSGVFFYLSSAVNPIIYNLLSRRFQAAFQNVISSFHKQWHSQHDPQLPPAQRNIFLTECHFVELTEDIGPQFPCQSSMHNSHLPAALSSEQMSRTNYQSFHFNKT

neuromedin U: Peptide ligand of the PFI-002 receptor; screened as Neuromedin U8 and Neuromedin U25 (wells F10-G3) (FRVDEEFQSPFASQSRGYFLFRPRN; ends and bridges not checked; UniProt P48645 142-166, looked up)
functional response of PFI-002 receptor (fluorescence measured by FLIPR, FIG. 2): specific functional response
